Measured values: paper PMC9516340, “Familial ALS-associated SFPQ variants promote the formation of SFPQ cytoplasmic aggregates in primary neurons” (Open Biology, 2022)

Target: the molecule itself
Assay: crystal structure; hanging-drop vapour diffusion at 20°C; SFPQ-276-535 L534I (His6-tag removed) mixed 1:1 with RXRα-DBD-130-228 as source of Zn(II); reservoir 0.1 M MES (pH 6.0), 0.2 M calcium chloride, 12% (w/v) PEG 4000; space group P2(1), two protein molecules per asu; 1.83 Å

B1: SFPQ-276-535 L534I (dimerization domain of human splicing factor proline- and glutamine-rich, fALS-associated L534I variant) (domain or fragment, UniProt P23246 276-535, looked up)
chain: EGFKANLSLLRRPGEKTYTQRCRLFVGNLPADITEDEFKRLFAKYGEPGEVFINKGKGFGFIKLESRALAEIAKAELDDTPMRGRQLRVRFATHAAALSVRNLSPYVSNELLEEAFSQFGPIERAVVIVDDRGRSTGKGIVEFASKPAARKAFERCSEGVFLLTTTPRPVIVEPLEQLDDEDGLPEKLAQKNPMYQKERETPPRFAQHGTFEYEYSQRWKSLDEMEKQQREQVEKNMKDAKDKLESEMEDAYHEHQANIL
notes: also called SFPQ L534I
B1: binds.
